The results in this text go back to paper PMC7789494.

Substrate in the series: O=C1C(Cl)=CC(=Nc2ccc(O)cc2)C=C1Cl
In words: purified protein. The series is classed as biochemical, Phanerodontia chrysosporium. To be noted: 500 µM cellobiose, 50 mM sodium acetate pH 4.5, electron acceptor.

B1: PcCDHTr (Phanerodontia chrysosporium) (protein)
chain: QSASQFTDPTTGFQFTGITDPVHDVTYGFVFPPLATSGAQSTEFIGEVVAPIASKWIGIALGGAMNNDLLLVAWANGNQIVSSTRWATGYVQPTAYTGTATLTTLPETTINSTHWKWVFRCQGCTEWNNGGGIDVTSQGVLAWAFSNVAVDDPSDPQSTFSEHTDFGFFGIDYSTAHSANYQNYLNGDSGNPTTTSTKPTSTSSSVTTGPTVSATPYDYIIVGAGPGGIIAADRLSEAGKKVLLLERGGPSTKQTGGTYVAPWATSSGLTKFDIPGLFESLFTDSNPFWWCKDITVFAGCLVGGGTSVNGALYWYPNDGDFSSSVGWPSSWTNHAPYTSKLSSRLPSTDHPSTDGQRYLEQSFNVVSQLLKGQGYNQATINDNPNYKDHVFGYSAFDFLNGKRAGPVATYLQTALARPNFTFKTNVMVSNVVRNGSQILGVQTNDPTLGPNGFIPVTPKGRVILSAGAFGTSRILFQSGIGPTDMIQTVQSNPTAAAALPPQNQWINLPVGMNAQDNPSINLVFTHPSIDAYENWADVWSNPRPADAAQYLANQSGVFAGASPKLNFWRAYSGSDGFTRYAQGTVRPGAASVNSSLPYNASQIFTITVYLSTGIQSRGRIGIDAALRGTVLTPPWLVNPVDKTVLLQALHDVVSNIGSIPGLTMITPDVTQTLEEYVDAYDPATMNSNHWVSSTTIGSSPQSAVVDSNVKVFGTNNLFIVDAGIIPHLPTGNPQGTLMSAAEQAAAKILALAGGP
notes: full two-domain flavocytochrome, native signal peptide (cleaved), untagged, secreted by Trichoderma reesei delta-xyr1; 83 kDa by SDS-PAGE
Take B1: the Km worked out at 4.31 ± 0.11 µM, the kcat stood at 24.4 ± 0.2 s⁻¹ and the kcat/Km amounted to 5.66e+06 ± 159000 M⁻¹ s⁻¹.

For orientation: Km means the concentration of substrate that gives half-maximal velocity. The kcat is the maximal rate divided by the concentration of active sites. Usually kcat/Km stands for the turnover number divided by the Michaelis constant.
